We go through one protein from article PMC3988878, “Ultrastructural characterisation of Bacillus subtilis TatA complexes suggests they are too small to form homooligomeric translocation pores” (Biochimica et Biophysica Acta, 2013).

This data set concerns the molecule itself. Description: SEC; Superdex 200 HR 10/30, calibrated; 240 μl of concentrated Talon eluate; 20 mM Trizma, 150 mM NaCl, 0.02% DDM; 0.5 ml/min; fractions immunoblotted for the His-tag.

B1: B. subtilis TatAd with a C-terminal His-tag (natural protein, UniProt O31467 1-70, looked up)
chain: MFSNIGIPGLILIFVIALIIFGPSKLPEIGRAAGRTLLEFKSATKSLVSGDEKEEKSAELTAVKQDKNAG
notes: TatAd, Bacillus subtilis, product of the tatAd-his gene in pBAD24 (pBAd-His); also called TatAd-His; TatAd complex; not shown: His6, C-terminal, kept
In the case of B1, the binding result is recorded as “binds”.
